Source: paper PMC3061437

Target: eukaryotic elongation factor-1 A1 (eEF1A1), purified (UniProt P68104)
Chain of UniProt P68104 (P68104 whole entry): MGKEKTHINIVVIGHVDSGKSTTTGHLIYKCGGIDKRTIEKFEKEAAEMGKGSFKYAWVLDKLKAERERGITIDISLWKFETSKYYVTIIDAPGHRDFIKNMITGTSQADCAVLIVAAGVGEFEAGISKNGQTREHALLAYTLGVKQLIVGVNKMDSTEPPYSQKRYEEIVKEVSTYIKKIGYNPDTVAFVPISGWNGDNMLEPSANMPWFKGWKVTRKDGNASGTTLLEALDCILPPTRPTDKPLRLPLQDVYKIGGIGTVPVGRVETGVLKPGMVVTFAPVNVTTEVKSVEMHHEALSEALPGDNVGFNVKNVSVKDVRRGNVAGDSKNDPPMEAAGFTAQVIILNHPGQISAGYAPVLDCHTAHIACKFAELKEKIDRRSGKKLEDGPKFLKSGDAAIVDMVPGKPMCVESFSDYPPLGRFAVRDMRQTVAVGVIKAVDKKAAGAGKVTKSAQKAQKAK

| Substance | repression of translation of Luc-BAT in an IVT assay |
| --- | --- |
| recombinant full-length (FL) hnRNP E1 expressed as a GST-fusion product (from UniProt Q15365 1-356) (natural protein) | > 80% |
| hnRNP E1 KH1 domain expressed as GST-fusion product (domain or fragment) | 70% |
